Tests used:
[1] = molecular target: VC-YlAaf2 (Yarrowia lipolytica); assay: split reporter (BiFC, NanoBiT); BiFC with the N-terminal and C-terminal regions of Venus in S. cerevisiae YEF473A, cells grown at 30°C for 16 h in liquid SC-Ura-His medium, fluorescence microscopy, nucleus by DAPI
[2] = tested on: T1, MBP-YlAaf1 (Yarrowia lipolytica), ORF:dd6ddf17; assay: EMSA; details: 10 mM Tris-HCl pH 7.5, 50 mM NaCl, 0.5 mM EDTA, 1 mM MgCl2, 4% glycerol, 0.5 mM DTT; 300 ng probe, 0-0.5 ug protein in 20 uL; 4% native PAGE in 0.5x TBE at …
T1 sequence: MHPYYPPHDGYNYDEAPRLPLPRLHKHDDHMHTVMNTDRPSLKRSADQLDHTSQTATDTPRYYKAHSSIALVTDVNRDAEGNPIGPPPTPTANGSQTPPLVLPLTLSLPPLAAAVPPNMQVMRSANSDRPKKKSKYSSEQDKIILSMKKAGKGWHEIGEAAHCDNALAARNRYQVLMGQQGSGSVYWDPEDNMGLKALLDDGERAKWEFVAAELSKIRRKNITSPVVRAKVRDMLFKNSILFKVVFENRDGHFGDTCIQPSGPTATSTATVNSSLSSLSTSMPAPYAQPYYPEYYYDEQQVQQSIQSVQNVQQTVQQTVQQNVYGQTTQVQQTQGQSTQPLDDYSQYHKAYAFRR

| percent of cells with the GFP signal in the nucleus [1] | Substance | binding [2] |
| --- | --- | --- |
| 17 % of cells | VN-YlAaf1 (natural protein) |  |
|  | ACCTCCCTTCGTGGTTTATGACGAAACACGCTTAGCTAAAGTTCTAAAGGCTAATATTACGAACTCTGTGAAAAGGCGAAAAACCACAAAAGGGACGTGTGGTGTTGAAAAGGTGAAAAAGAGAAAACGAAAAGTCTGGCCGAAGTCAAT (double strand) [MHY1 promoter 150-bp probe] | no binding |

Reference: PMC12482196
